The values that follow come from patent EP4421166A1 (Max-Planck-Gesellschaft zur Förderung der Wissenschaften …, dated 2024).

The target of assay [1] is LKPG-cpHaloΔ2-PDYE. The experiment in a line: cell-based or functional assay.
In assay [2] the target is T1, cpHaloΔ2.
T1 construct: also called linker04/E20S/N119H/V184E/V197K; improved cpHaloΔ variant
The experiment in a line: EC50 of the split-HaloTag labeling reaction (fluorescence polarization). (In general: Polarisation of emitted light reports the rotation of a fluorescent probe.)

For assay [3], the target named is T2, cpHaloΔ.
T2 construct: Used as purified protein; also called original cpHaloΔ; first partial effector
Put plainly: method not stated.

T1 sequence (chain, as listed by the source mutant): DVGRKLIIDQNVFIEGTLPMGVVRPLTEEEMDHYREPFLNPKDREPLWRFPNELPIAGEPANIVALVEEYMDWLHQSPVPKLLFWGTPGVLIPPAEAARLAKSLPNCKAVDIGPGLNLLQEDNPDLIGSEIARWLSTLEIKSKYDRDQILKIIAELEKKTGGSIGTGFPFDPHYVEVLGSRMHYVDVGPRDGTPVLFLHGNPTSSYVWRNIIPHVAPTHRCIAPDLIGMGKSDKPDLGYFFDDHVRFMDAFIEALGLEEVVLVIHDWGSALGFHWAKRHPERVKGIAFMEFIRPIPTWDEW
Sequence of LKPG-cpHaloΔ2-PDYE (chain, as listed by the source mutant): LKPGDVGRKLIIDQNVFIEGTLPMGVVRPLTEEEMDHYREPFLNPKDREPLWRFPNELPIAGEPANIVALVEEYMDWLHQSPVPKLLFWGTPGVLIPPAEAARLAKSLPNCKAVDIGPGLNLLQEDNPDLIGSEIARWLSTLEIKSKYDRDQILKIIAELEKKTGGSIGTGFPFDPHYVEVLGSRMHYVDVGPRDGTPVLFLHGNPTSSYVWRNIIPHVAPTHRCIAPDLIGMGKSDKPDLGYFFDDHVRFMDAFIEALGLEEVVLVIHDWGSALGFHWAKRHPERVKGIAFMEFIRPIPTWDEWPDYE
T2 sequence (chain, as listed by the source mutant): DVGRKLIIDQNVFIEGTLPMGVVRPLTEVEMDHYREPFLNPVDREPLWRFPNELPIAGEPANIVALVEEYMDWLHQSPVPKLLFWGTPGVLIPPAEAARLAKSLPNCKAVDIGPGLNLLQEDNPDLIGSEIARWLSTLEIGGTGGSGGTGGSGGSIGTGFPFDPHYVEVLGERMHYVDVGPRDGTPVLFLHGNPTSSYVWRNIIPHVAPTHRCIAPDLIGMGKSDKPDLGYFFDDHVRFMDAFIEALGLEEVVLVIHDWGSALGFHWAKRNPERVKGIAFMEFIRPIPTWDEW

Regarding RGWSWREMFRLFRT [Hpep RGWSWREMFRLFRT], in assay [1], the “EC50 of the labeling reaction” value amounted to 0.000382 µM and the “fold lower EC50 than cpHaloΔ2” value was found to be 6.6 fold. Further, the binding result in assay [2] is “binds”.

Turning to RMWTWREMFRLFRT [Hpep RMWTWREMFRLFRT], the binding result in assay [2] is “binds”. On the same count and under the same terms, as for RQWSWREMFRLFRT [Hpep RQWSWREMFRLFRT], the entry is “binds”.

B1: Hpep1 (peptide)
peptide: ARETFQAFRT
notes: Residues 145-154 of HaloTag; also called original Halo-Peptide; original Hpep (10mer)
What is called Kd is the free concentration of one partner at which half of the binding sites on the other are occupied at equilibrium, for simple one-to-one binding. Turning to B1, the Kd in assay [3] was 4600 µM. That is a millimolar value.
